Source: patent US7556927
Each block holds one binder with its values, some of them ahead of it.

Tests used:
[1] = target: copper-induced oxidized low density lipoprotein (Cu-OxLDL) (UniProt P04114); test: chemiluminescent ELISA, against Fab IK17 as reference
[2] = target: malondialdehyde low density lipoprotein (MDA-LDL) (UniProt P04114); test: as above
[3] = target: copper-induced oxidized low density lipoprotein (Cu-OxLDL) (UniProt P04114); test: cell-based or functional assay
[4] = target: copper-induced oxidized low density lipoprotein (Cu-OxLDL) (UniProt P04114); test: competition: ^125I-Cu-OxLDL binding to mouse peritoneal macrophages at 4 C, IK17 as competitor
[5] = target: malondialdehyde low density lipoprotein (MDA-LDL) (UniProt P04114); test: direct binding and competition assays with affinity purified Fab; method of the affinity value not stated

- fold greater binding activity than parent Fab [1]: 50 to 500 fold
- fold greater binding activity than parent Fab [2]: 50 to 500 fold
B1: scFv IK17 (scFv, part only; not given: linker and His tag, not shown: small tags and cut ends)
scFv, part: MAEVQLLESGGDLVQPGGSLRLSCIVSGSTFSNYAMSWVRQAPGKGLEWVSAISGTGRSTNYADSVKGRFTISRDNSKDTLYLEMNSLRAEDTATYYCTRTPRIDFWNIANRHFDYWGQGTRVTVSSASTKGPSVFPLAPSSKSTSGGTAALGCLVRDYFPEPVTVSWNSGALTSGVHTFPAVLQSSGLYSLSSVVTVPSSVLTQSPATLSLSPGERVTLSCRASQSVSSSLAWYQQKPGQAPRLLIYDASNRATGVPARFSGSGSGTDFTLTISGLEPEDFAVYYCQQRYNWPPKYTFGQGTKLEIRRTVAAPSVFIFPPSDEQLKSGTASVVCLLNNFYPREAKVQWKVG

- degradation of ^125I-Cu-OxLDL by macrophages (TCA-soluble ^125I in medium), % inhibition [3]: 50 to 65%
- % inhibition of binding of ^125I-Cu-OxLDL to macrophages [4]: 70 to 85%
- Kd [5]: 37 nM
B2: IK17 human monoclonal IgG Fab (Fab, V domains shown)
VH: EVQLLESGGDLVQPGGSLRLSCIVSGSTFSNYAMSWVRQAPGKGLEWVSAISGTGRSTNYADSVKGRFTISRDNSKDTLYLEMNSLRAEDTATYYCTRTPRIDFWNIANRHFDYWGQGTRVTVSS
VL: VLTQSPATLSLSPGERVTLSCRASQSVSSSLAWYQQKPGQAPRLLIYDASNRATGVPARFSGSGSGTDFTLTISGLEPEDFAVYYCQQRYNWPPKYTFGQGTKLEIRR
